Measured values as given in the Human Domainome abundance scans (Beltran et al. 2025).

B1: Retinoic acid receptor beta, residues 85 to 161; numbered along this chain, P10826 (parent)
chain: YKPCFVCQDKSSGYHYGVSACEGCKGFFRRSIQKNMIYTCHRDKNCVINKVTRNRCQYCRLQKCFEVGMSKESVRND

Variants of: B1
Assay: abundance fitness (aPCA) (normalised: wild type 0, dead -1); higher = more abundant; growth selection in yeast, the domain comes from the species named
Conditions: Homo sapiens

Abundance fitness, by site and new letter:
G13: E -0.068; T -0.053; R -0.289; D 0.082; C -0.334; M -0.067; A -0.325; N -0.145; K -0.292; W -0.673; Y -0.206; V -0.192; S -0.055; I -0.279; L -0.457; Q -0.503; H -0.265; F -0.349
G23: H -0.114; F -0.304; R -0.395; N -0.063; T -0.008; E 0.231; Y -0.452; S 0.114; K -0.288; I -0.282; A 0.016; V -0.149; Q 0.057; W -0.138; C 0.108; D 0.228; M -0.227; P 0.072
K10: S 0.165; R 0.034; F 0.026; Y 0.115; V 0.007; H 0.024; D 0.112; A 0.147; G -0.045; N 0.146; C 0.019; I 0.154; M 0.078; P -0.03; W -0.042; L 0.043; T 0.078
H15: L -0.097; F -0.111; N -0.015; E -0.129; A 0.033; W -0.203; V -0.091; M -0.006; C 0.016; G -0.25; D 0.03; K -0.276; T -0.046; I -0.348; Y 0.05
A20: R -0.785; V -0.07; F -0.077; S -0.07; E -0.66; M -0.228; G -0.614; K -1.08; L -0.112; T -0.065; Y -0.594; N -0.491; Q -0.355; I 0.055; P -0.724; W -0.672; C 0.064
S19: A 0.011; K -0.21; V 0.131; F -0.09; W 0.024; M -0.003; C -0.088; H -0.032; R -0.121; N -0.095; Q 0.049; I 0.066; Y -0.048; P -0.045; T 0.02; L -0.046; D -0.285; E 0.017
C4: Y -0.592; W -0.954
Y16: C -0.134; E 0.29; I -0.178; F 0.035; W -0.126; M -0.15; T -0.069; A -0.062; Q -0.027; N -0.08; S -0.072; P -0.115; D 0.128; V -0.062; G 0.025; L -0.045; K -0.295
V18: I 0.012; S -0.165; Y -0.29; P -0.365; T 0.103; L -0.353; H -0.433; R -0.76; C -0.106; E -0.421; F -0.108; D -0.637; Q -0.04; A 0.088; G -0.22; M -0.209
F5: H -0.435; N -0.39; L -0.076; E -0.38; W -0.316; Q -0.046; T -0.048; R -0.421; D -0.314; A 0.053; V -0.154; S -0.053; M -0.155; Y -0.043; C -0.244; K -0.418; P 0.076; I -0.022; G -0.118
D9: M -0.457; G -0.588; E -0.03; W -0.529; R -0.631; I -0.726; C -0.525; K -0.722; V -0.753; T -1.01; P -1; S -0.71; Q -0.6; H -0.543; N -0.828; A -0.465; F -0.65; Y -0.57
S11: V -0.221; I -0.27; A -0.21; H -0.525; K -0.242; L -0.263; Q -0.33; P -0.088; Y -0.407; D 0; G -0.165; C -0.414; F -0.377; T -0.254; N 0.173
V6: M -0.76; W -0.795; I -0.13; F -0.374; C -0.995; R -0.83; K -0.82; P -0.849; S -0.907; G -0.746; A -0.711; L -0.81; H -0.748; E -1.02; Q -0.926; T -0.822; N -0.873
C24: A -1.03; K -0.89; N -1.07; F -0.577; L -0.624; E -0.842; R -0.793; P -1.06; D -0.47; M -0.817; H -0.896
S12: I -0.096; G -0.242; V 0.011; P -0.227; M -0.102; R -0.32; E -0.041; Y -0.364; K -0.207; T 0.067; L -0.216; F -0.205; W -0.106; N 0.023; A 0.057; C 0.168; D 0.16; H -0.034
C7: S -0.868; L -0.832; D -0.724; I -0.806; Y -0.609; V -0.879; N -0.615; G -1.05; K -0.879; Q -1; H -0.932; W -0.656; E -1.23; T -0.438; F -0.999; M -0.753; A -0.991
Y14: P 0.125; I 0.054; W 0.061; K 0.012; N -0.041; L 0.006; V 0.092; A 0.11; T 0.042; S -0.044; C -0.119; E -0.038; G -0.244; R -0.203; H 0.113
G17: L -0.368; H -0.292; D -0.246; E -0.08; N -0.091; T -0.242; S -0.219; M -0.254; V -0.481; K -0.138; Y 0.101; W -0.603; P -0.164; A -0.278; Q -0.311; R -0.288; C -0.24
E22: W -0.368; P -0.324; L -0.186; Q -0.316; I -0.267; D -0.025; G -0.325; R -0.663; T -0.126; A -0.209; V -0.203; S -0.239; K -0.205; N -0.317; M -0.224
Q8: P -0.813; R -0.263; S 0.064; D 0.08; T 0.015; A 0.022; M 0.029; C -0.073; W -0.083; G 0.044; E 0.111; N -0.035; H 0.055; V -0.598; I -1.01; K 0; F -0.092
C21: I -0.89; F -1.14; L -0.752; S -0.933; Q -0.93; G -0.76; R -0.666; T -0.98; N -0.501; Y -0.885; K -0.91; V -0.881; W -0.839; M -0.751; E -0.575; A -0.809; D -0.904
